By Kd is commonly meant the constant that tells how readily two partners part at equilibrium. As a reminder, the Ki is the dissociation constant of the complex between target and ligand, obtained from inhibition or displacement.

Where two headings read alike, the source gives them in different places. Ends that are not written are not given here. A value given as a limit tells only on which side of the number the result lay.

Assay [1] addresses bovine trypsin (bovine), P00760. Description: SPR, bovine trypsin. For orientation: In SPR one partner is held on a chip, and binding of the other changes the refractive index at the surface.
Assay [2] has as its target T1, human β-factor XIIa (human), P00748.
T1 chain 1: NGPLSCGQR
T1 chain 2: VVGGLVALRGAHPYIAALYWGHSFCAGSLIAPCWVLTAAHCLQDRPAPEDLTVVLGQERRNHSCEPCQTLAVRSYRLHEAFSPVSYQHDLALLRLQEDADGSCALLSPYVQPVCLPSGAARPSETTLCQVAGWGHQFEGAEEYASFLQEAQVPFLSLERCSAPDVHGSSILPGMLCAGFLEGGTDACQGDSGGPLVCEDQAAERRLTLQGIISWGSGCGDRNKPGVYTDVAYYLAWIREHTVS
The assay can be described thus: SPR (Biacore T200), biotinylated human β-FXIIa captured on chip, peptide as analyte, 1:1 model.

The target is the same in assay [3]. The assay can be described thus: competitive protease inhibition assay, Ac-QRFR-pNA substrate, Morrison Ki.
Assay [4] shares this target. Description: SPR (Biacore T200), biotinylated human β-FXIIa captured on chip, peptide as analyte, 1:1 model.
Assay [5] shares this target. Description: mRNA display affinity selection on bead-immobilised biotinylated human β-FXIIa, NGS; share of the sequence in the recovered library; peptide displayed as acyclic mRNA fusion.
The target in assay [6] is human cationic trypsin (human), P07477. Description: competitive inhibition assay with peptide substrate.
Assay [7] concerns the target T1, human β-factor XIIa (human), P00748. Described as above.
Assay [8] concerns the target T2, kallikrein-related peptidase 4 (KLK4), Q9Y5K2.
T2 chain: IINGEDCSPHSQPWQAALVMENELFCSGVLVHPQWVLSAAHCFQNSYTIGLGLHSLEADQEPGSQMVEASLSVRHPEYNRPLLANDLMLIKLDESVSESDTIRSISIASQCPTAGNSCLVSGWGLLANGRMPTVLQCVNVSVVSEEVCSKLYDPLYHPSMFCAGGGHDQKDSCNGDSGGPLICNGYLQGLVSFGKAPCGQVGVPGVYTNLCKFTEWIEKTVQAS
The description is as above.

For assay [9], the target named is T3, recombinant human matriptase (human), Q9Y5Y6.
T3 chain: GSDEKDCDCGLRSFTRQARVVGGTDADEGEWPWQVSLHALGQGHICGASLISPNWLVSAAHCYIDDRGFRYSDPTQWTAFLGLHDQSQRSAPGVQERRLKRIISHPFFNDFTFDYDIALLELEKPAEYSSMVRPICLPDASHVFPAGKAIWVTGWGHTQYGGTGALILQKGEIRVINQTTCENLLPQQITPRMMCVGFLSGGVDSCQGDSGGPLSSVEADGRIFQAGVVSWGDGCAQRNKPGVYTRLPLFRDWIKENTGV
Described as above.

Assay [10] addresses T4, FXIIa in human plasma (generated by kaolin activation of FXII in aPTT assays) (human), P00748.
T4 chain: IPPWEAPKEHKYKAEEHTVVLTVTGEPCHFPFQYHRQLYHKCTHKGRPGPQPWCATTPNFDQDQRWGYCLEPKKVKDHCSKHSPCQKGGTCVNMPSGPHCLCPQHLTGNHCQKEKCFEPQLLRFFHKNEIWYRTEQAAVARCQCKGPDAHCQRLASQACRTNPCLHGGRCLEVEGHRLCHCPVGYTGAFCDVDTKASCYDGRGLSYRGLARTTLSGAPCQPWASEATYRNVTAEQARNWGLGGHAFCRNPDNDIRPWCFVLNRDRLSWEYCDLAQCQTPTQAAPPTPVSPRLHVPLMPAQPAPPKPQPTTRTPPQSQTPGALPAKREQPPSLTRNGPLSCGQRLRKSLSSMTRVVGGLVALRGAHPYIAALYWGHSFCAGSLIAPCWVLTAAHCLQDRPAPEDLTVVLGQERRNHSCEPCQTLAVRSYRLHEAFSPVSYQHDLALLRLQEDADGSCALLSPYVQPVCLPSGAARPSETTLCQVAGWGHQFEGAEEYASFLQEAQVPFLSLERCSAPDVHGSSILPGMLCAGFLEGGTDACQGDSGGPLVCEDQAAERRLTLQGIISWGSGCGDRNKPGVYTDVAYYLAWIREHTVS
The assay can be described thus: cell-based or functional assay.

In assay [11] the target is human cationic trypsin (human), P07477. The assay can be described thus: competitive protease inhibition assay (selectivity panel), human trypsin, Boc-VPR-MCA.
Assay [12] addresses T3, recombinant human matriptase (human), …. Description: competitive protease inhibition assay (selectivity panel), human matriptase, Boc-QAR-MCA.
The target of assay [13] is T1, human β-factor XIIa (human), P00748. Description: mRNA display affinity selection on bead-immobilised biotinylated human β-FXIIa, NGS; share of the sequence in the recovered library.
For assay [14] the target is unchanged. The assay can be described thus: competitive protease inhibition assay, ratio of Ki values.
For assay [15] the target is unchanged. Description: competitive protease inhibition assay, 0.5 nM FXIIa, Boc-QGR-MCA substrate.

Sequence of bovine trypsin (bovine), P00760 (P00760 24-246): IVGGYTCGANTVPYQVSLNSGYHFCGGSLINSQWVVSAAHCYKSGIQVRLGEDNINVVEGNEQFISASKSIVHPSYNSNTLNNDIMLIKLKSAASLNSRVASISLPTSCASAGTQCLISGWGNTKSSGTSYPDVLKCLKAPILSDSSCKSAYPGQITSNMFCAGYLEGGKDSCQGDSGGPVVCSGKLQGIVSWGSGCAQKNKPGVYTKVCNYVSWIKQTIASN

B1: MCoTI-II (Momordica cochinchinensis trypsin inhibitor-II), chemically synthesized, cyclic (peptide)
peptide: DGGVCPKILKKCRRDSDCPGACICRGNGYCGSGS
modifications: not checked
Take B1: the figures for the Kd in [1] and in assay [2] were under 0.1 nM and 58 nM, respectively.

B2: MCoFx1 acyclic (peptide)
peptide: DGGICPRIGRLCRRDSDCPGACICRATRFCGSGY
modifications: not checked
In the case of B2, the Kd in [1] was determined as 59.6 nM; in assay [2] it was 1.9 nM; in assay [4] it was 1.89 nM. In assay [3], this molecule displayed a Ki of 0.73 nM.

B3: MCoFx3 acyclic (peptide)
peptide: DGGRCPRLLRWCRRDSDCPGACICARGGLCGSGS
modifications: not checked
As to B3, the Kd was 2.39 nM in assay [1] and 167 nM in assay [2]. The Ki in assay [3] turned out to be 525 nM. The molecule further registered a Population (%) in assay [5] of 2.3%.

B4: MCoFx3 cyclic (peptide)
peptide: DGGRCPRLLRWCRRDSDCPGACICARGGLCGSGS
modifications: not checked
B4: the Kd came to 2.72 nM in assay [1], 23 nM in assay [2] and 22.8 nM in [4]. This molecule also yielded a Ki in [3] of 75 nM.

B5: MCoFx2 acyclic (peptide)
peptide: DGGICPRILVYCRRDSDCPGACICIRRTYCGSGS
modifications: not checked
As for B5, the values for the Kd in [1], in assay [2] and in assay [4] were under 0.1 nM, 45 nM and 45.4 nM, respectively. The molecule further registered a Ki in assay [3] of 73 nM. This molecule also came in with a Population (%) in assay [5] of 19.8%.

B6: MCoFx2 cyclic (peptide)
peptide: DGGICPRILVYCRRDSDCPGACICIRRTYCGSGS
modifications: not checked
B6: the figures for the Kd in assay [1] and in [4] were under 0.1 nM and 10 nM, respectively. In assay [3], this molecule showed a Ki of 12 nM.

B7: MCoFx4 acyclic (peptide)
peptide: DGGVCPRVGWRCRRDSDCPGACICYPTKWCGSGS
modifications: not checked
Consider B7, for which the Kd in [1] was found to be 15.1 nM; in assay [2], 74 nM; in assay [4] it was 73.8 nM. Moreover, the Ki in [3] turned out to be 17 nM. Also, in [5], the Population (%) came out at 2.3%.

B8: MCoFx4 cyclic (peptide)
peptide: DGGVCPRVGWRCRRDSDCPGACICYPTKWCGSGS
modifications: not checked
With B8, the Kd in assay [1] turned out to be 4.09 nM; in assay [2], 14 nM; in assay [4], 14.4 nM. The Ki in assay [3] was 5.5 nM.

B9: acyclic MCoTI-II variant M (peptide)
peptide: RVCPRILKKCRRDSDCPGACICRGNGYCG
modifications: not checked
Regarding B9, the Ki in assay [6] stood at 0.4 nM; in assay [7], 3.3 nM; in assay [8] it was 0.07 nM; in assay [9], 0.4 nM.

B10: cMCoTI-fxL1 (peptide)
peptide: DGGICPRIGRLCRRDSDCPGACICRGNGYCGSGS
modifications: not checked
The molecule B10 gave an EC2× (inhibitor concentration that doubles the clotting time), aPTT assay in human plasma in assay [10] of 500 nM. In addition, the Ki in assay [3] was determined as 0.69 nM; in [11], 996 nM; in [12], 2210 nM.

B11: MCoFx5 acyclic (peptide)
peptide: DGGRCCGGYLVCRRDSDCPGACICVFKKHCGSGS
modifications: not checked
In turn, B11 registered a Ki in assay [3] of 106 nM. In [2], this molecule yielded a Kd of 23 nM. The Population (%) in [5] came to 0.8%.

B12: MCoFx5 cyclic (peptide)
peptide: DGGRCCGGYLVCRRDSDCPGACICVFKKHCGSGS
modifications: not checked
In assay [3], B12 yielded an inhibitory constant (Ki) of 207 nM. Further, the results for the Kd in assay [2] and in [4] were 82 nM and 81.8 nM, respectively.

B13: MCoFx1, mRNA display selected sequence (parent of the saturation mutagenesis library) (peptide)
peptide: MDGGICPRIGRLCRRDSDCPGACICRATRFCGSGSGS
modifications: not checked
The molecule B13 registered a Population (%) in assay [13] of 20.7%.

B14: Cyclic [R27G]MCoFx7 (peptide)
peptide: GGICPRIGRLCRRDSDCPGACICRATGFCGSGSD
modifications: not fully specified (bridges); cysteine pairing not given here
On to B14, for which the fold loss in activity against cyclic MCoFx7 in assay [14] was 3.2 fold. Besides, in assay [15], the Ki was found to be 0.21 nM.

B15: Cyclic [A25P]MCoFx7 (peptide)
peptide: GGICPRIGRLCRRDSDCPGACICRPTRFCGSGSD
modifications: not fully specified (bridges); cysteine pairing not given here
Regarding B15, in assay [15], the inhibition constant (Ki) was found to be 0.093 nM.

B16: Cyclic [D34P]MCoFx7 (peptide)
peptide: GGICPRIGRLCRRDSDCPGACICRATRFCGSGSP
modifications: not fully specified (bridges); cysteine pairing not given here
Molecule B16 showed a Ki in [15] of 0.091 nM.

B17: Cyclic [R13K]MCoFx7 (peptide)
peptide: GGICPRIGRLCRKDSDCPGACICRATRFCGSGSD
modifications: not fully specified (bridges); cysteine pairing not given here
B17 gave a Ki in assay [15] of 0.068 nM.

B18: Cyclic MCoFx7 (peptide)
peptide: GGICPRIGRLCRRDSDCPGACICRATRFCGSGSD
modifications: not checked
B18 yielded a Ki in assay [15] of 0.064 nM.

B19: Cyclic [A25K]MCoFx7 (peptide)
peptide: GGICPRIGRLCRRDSDCPGACICRKTRFCGSGSD
modifications: not fully specified (bridges); cysteine pairing not given here
With B19, in [15], the Ki came to 0.046 nM.

B20: Cyclic [R12V]MCoFx7 (peptide)
peptide: GGICPRIGRLCVRDSDCPGACICRATRFCGSGSD
modifications: not fully specified (bridges); cysteine pairing not given here
In the case of B20, the Ki in assay [15] is 0.069 nM.

B21: Cyclic [R12E]MCoFx7 (peptide)
peptide: GGICPRIGRLCERDSDCPGACICRATRFCGSGSD
modifications: not fully specified (bridges); cysteine pairing not given here
With B21, the fold weaker activity than cyclic MCoFx7 in assay [14] came out at 2 fold. Further, in assay [15], the Ki was determined as 0.13 nM.

B22: Cyclic [R12T]MCoFx7 (peptide)
peptide: GGICPRIGRLCTRDSDCPGACICRATRFCGSGSD
modifications: not fully specified (bridges); cysteine pairing not given here
Molecule B22 returned a Ki in assay [15] of 0.065 nM.

B23: Cyclic [R27H]MCoFx7 (peptide)
peptide: GGICPRIGRLCRRDSDCPGACICRATHFCGSGSD
modifications: not fully specified (bridges); cysteine pairing not given here
With B23, in [14], the fold loss in activity against cyclic MCoFx7 came to 2 fold. In [15], the Ki came to 0.12 nM.

Source of the values: patent US20240344241A1, “PROTEINACEOUS MOLECULES AND USES THEREFOR” (THE UNIVERSITY OF QUEENSLAND, priority 2021, published 2024).
